B1: BBSome-interacting protein 1 (Homo sapiens), A8MTZ0 (parent)
chain: MLKAAAKRPELSGKNTISNNSDMAEVKSMFREVLPKQGPLFVEDIMTMVLCKPKLLPLKSLTLEKLEKMHQAAQNTIRQQEMAEKDQRQITH
partner: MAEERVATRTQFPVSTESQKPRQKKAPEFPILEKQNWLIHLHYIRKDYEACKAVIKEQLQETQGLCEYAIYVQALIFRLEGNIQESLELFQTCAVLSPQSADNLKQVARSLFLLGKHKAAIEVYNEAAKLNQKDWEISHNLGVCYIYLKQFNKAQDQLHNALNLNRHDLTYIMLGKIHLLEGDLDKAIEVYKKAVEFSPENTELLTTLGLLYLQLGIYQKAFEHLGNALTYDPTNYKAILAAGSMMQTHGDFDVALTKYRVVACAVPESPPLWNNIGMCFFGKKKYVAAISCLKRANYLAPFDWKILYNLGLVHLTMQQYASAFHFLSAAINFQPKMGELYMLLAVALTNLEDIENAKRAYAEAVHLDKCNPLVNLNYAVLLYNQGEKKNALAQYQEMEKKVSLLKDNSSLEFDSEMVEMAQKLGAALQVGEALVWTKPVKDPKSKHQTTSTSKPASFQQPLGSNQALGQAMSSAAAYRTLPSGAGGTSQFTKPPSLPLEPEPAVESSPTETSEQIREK

Variants of: B1
Conditions: with bbs4_human BBS4, Q96RK4

Variant | effect of a mutation on the interaction
P35T | disrupting interaction strength
P35E | with no effect
P35S | disrupting interaction strength
P35K | with no effect
P35A | with no effect
P35R | disrupting interaction strength
N20K | with no effect
P39E | with no effect
P39A | with no effect
P39K | with no effect
L40E | with no effect
L40K | with no effect
L40A | with no effect
E43A | with no effect
E43K | with no effect
E32K | disrupting interaction strength
E32A | with no effect
I45E | with no effect
I45A | with no effect
I45K | with no effect
Q37A | with no effect
Q37E | with no effect

Variant | effect of a mutation on the interaction
Q37K | with no effect
L34A | disrupting interaction strength
L34R | disrupting interaction strength
L34H | disrupting interaction strength
L34D | disrupting interaction strength
L34K | with no effect
L34P | disrupting interaction strength
L34E | with no effect
A24K | with no effect
A24E | with no effect
D44K | with no effect
D44A | with no effect
D44E | with no effect
S28A | with no effect
S28E | with no effect
S28K | with no effect
S21K | with no effect
S21A | with no effect
S21E | with no effect
M23A | with no effect
M23K | with no effect
M23E | with no effect

Variant | effect of a mutation on the interaction
M46A | with no effect
F30S | disrupting interaction strength
F30A | with no effect
F30K | with no effect
F30E | with no effect
V33A | with no effect
V33K | with no effect
V33E | with no effect
M29K | with no effect
M29F | disrupting interaction strength
M29A | with no effect
M29E | with no effect
G38A | with no effect
G38K | with no effect
G38E | with no effect
D22A | with no effect
D22E | with no effect
D22K | with no effect
K27Y | disrupting interaction strength
K27L | disrupting interaction strength
K27A | with no effect
K27S | disrupting interaction strength

Variant | effect of a mutation on the interaction
K27E | with no effect
R31E | with no effect
R31K | with no effect
R31A | with no effect
V42E | with no effect
V42A | with no effect
V42K | with no effect
K36Y | disrupting interaction strength
K36P | disrupting interaction strength
K36A | with no effect
K36E | with no effect
E25K | with no effect
E25A | with no effect
V26A | with no effect
V26K | with no effect
V26E | with no effect
F41E | with no effect
F41A | with no effect
F41K | with no effect

Other lines, results leading:

effect of a mutation on the interaction | Variant
with no effect | K54E
disrupting interaction strength | K54Y
with no effect | K54A
disrupting interaction strength | K54T
with no effect | K59A
with no effect | K59E
disrupting interaction strength | K52Y
with no effect | K52E
disrupting interaction strength | K52I
with no effect | K52A
with no effect | K68A
with no effect | K68E
with no effect | C51E
with no effect | C51K
with no effect | C51A
disrupting interaction strength | C51S
with no effect | A73E
with no effect | A72E
disrupting interaction strength | A72D
with no effect | A72K
with no effect | E67K
disrupting interaction strength | E67A

effect of a mutation on the interaction | Variant
disrupting interaction strength | E67S
with no effect | L50K
with no effect | L50A
with no effect | L50E
with no effect | L55A
with no effect | L55E
with no effect | L55K
with no effect | L58A
with no effect | L58E
with no effect | L58K
with no effect | L63A
with no effect | L63E
with no effect | L63K
with no effect | K65A
with no effect | K65E
with no effect | T62A
with no effect | T62K
with no effect | T62E
disrupting interaction strength | T62S
disrupting interaction strength | Q71R
with no effect | Q71E
with no effect | Q71A

effect of a mutation on the interaction | Variant
with no effect | Q71K
with no effect | V49K
with no effect | V49A
with no effect | V49E
with no effect | H70K
disrupting interaction strength | H70T
with no effect | H70A
with no effect | H70E
with no effect | T47A
with no effect | T47K
disrupting interaction strength | T47R
with no effect | T47E
with no effect | E64K
with no effect | E64A
with no effect | M69A
with no effect | M69K
with no effect | M69E
disrupting interaction strength | M46F
with no effect | M46K
with no effect | M46E
with no effect | P57K
with no effect | P57A

effect of a mutation on the interaction | Variant
with no effect | P57E
disrupting interaction strength | P57R
with no effect | L56A
with no effect | L56K
with no effect | L56E
disrupting interaction strength | L56F
with no effect | L61E
with no effect | L61K
with no effect | L61A
with no effect | L66E
with no effect | L66K
with no effect | L66A
with no effect | P53A
with no effect | P53E
with no effect | P53K
with no effect | M48A
with no effect | M48K
with no effect | M48E
with no effect | S60E
with no effect | S60K
with no effect | S60A
